The experiment has as its target RmlT, wall teichoic acid rhamnosyltransferase of Listeria monocytogenes EGDe (Listeria monocytogenes EGDe). Briefly: SEC. (In general: SEC sorts molecules by how far they enter the pores of the column.)

Data on one substance can be found in article doi:10.1101/2024.01.23.574818.

For orientation: stoichiometry N means the number of molecules, sites or subunits per partner or assembly.

On to “RmlT, wall teichoic acid rhamnosyltransferase of Listeria monocytogenes EGDe (enzyme)”, for which the stoichiometry N was determined as 2.
